Measurements published in PMC2268108 (The Journal of General Physiology, 2005).
Changes are numbered by the printed parent chain. Names and notes keep the numbering of the source.

Columns and labels:
[1] = molecular target: the molecule itself; test: single-molecule fluorescence
[2] = molecular target: the molecule itself; test: single-molecule fluorescence; remark: listed apart in the source
[3] = molecular target: the molecule itself; test: cross-linking
[4] = molecular target: the molecule itself; test: SDS-PAGE of the tetramer

B1: pig gastric H/K-ATPase (αβ protomer), FITC-modified (complex)
chain 1: not shown
chain 2: MAALQEKKSCSQRMEEFQRYCWNPDTGQMLGRTLSRWVWISLYYVAFYVVMSGIFALCIYVLMRTIDPYTPDYQDQLKSPGVTLRPDVYGEKGLDISYNVSDSTTWAGLAHTLHRFLAGYSPAAQEGSINCTSEKYFFQESFLAPNHTKFSCKFTADMLQNCSGRPDPTFGFAEGKPCFIIKMNRIVKFLPGNSTAPRVDCAFLDQPRDGPPLQVEYFPANGTYSLHYFPYYGKKAQPHYSNPLVAAKLLNVPRNRDVVIVCKILAEHVSFDNPHDPYEGKVEFKLKIQK
[1]
  stoichiometry N: 2
[2]
  stoichiometry N: 4

B2: KdpFABC complex from Escherichia coli (complex)
chain 1: MSAGVITGVLLVFLLLGYLVYALINAEAF
chain 2: MAAQGFLLIATFLLVLMVLARPLGSGLARLINDIPLPGTTGVERVLFRALGVSDREMNWKQYLCAILGLNMLGLAVLFFMLLGQHYLPLNPQQLPGLSWDLALNTAVSFVTNTNWQSYSGETTLSYFSQMAGLTVQNFLSAASGIAVIFALIRAFTRQSMSTLGNAWVDLLRITLWVLVPVALLIALFFIQQGALQNFLPYQAVNTVEGAQQLLPMGPVASQEAIKMLGTNGGGFFNANSSHPFENPTALTNFVQMLAIFLIPTALCFAFGEVMGDRRQGRMLLWAMSVIFVICVGVVMWAEVQGNPHLLALGTDSSINMEGKESRFGVLVSSLFAVVTTAASCGAVIAMHDSFTALGGMVPMWLMQIGEVVFGGVGSGLYGMMLFVLLAVFIAGLMIGRTPEYLGKKIDVREMKLTALAILVTPTLVLMGAALAMMTDAGRSAMLNPGPHGFSEVLYAVSSAANNNGSAFAGLSANSPFWNCLLAFCMFVGRFGVIIPVMAIAGSLVSKKSQAASSGTLPTHGPLFVGLLIGTVLLVGALTFIPALALGPVAEYLS
chain 3: MSRKQLALFEPTLVVQALKEAVKKLNPQAQWRNPVMFIVWIGSLLTTCISIAMASGAMPGNALFSAAISGWLWITVLFANFAEALAEGRSKAQANSLKGVKKTAFARKLREPKYGAAADKVPADQLRKGDIVLVEAGDIIPCDGEVIEGGASVDESAITGESAPVIRESGGDFASVTGGTRILSDWLVIECSVNPGETFLDRMIAMVEGAQRRKTPNEIALTILLIALTIVFLLATATLWPFSAWGGNAVSVTVLVALLVCLIPTTIGGLLSAIGVAGMSRMLGANVIATSGRAVEAAGDVDVLLLDKTGTITLGNRQASEFIPAQGVDEKTLADAAQLASLADETPEGRSIVILAKQRFNLRERDVQSLHATFVPFTAQSRMSGINIDNRMIRKGSVDAIRRHVEANGGHFPTDVDQKVDQVARQGATPLVVVEGSRVLGVIALKDIVKGGIKERFAQLRKMGIKTVMITGDNRLTAAAIAAEAGVDDFLAEATPEAKLALIRQYQAEGRLVAMTGDGTNDAPALAQADVAVAMNSGTQAAKEAGNMVDLDSNPTKLIEVVHIGKQMLMTRGSLTTFSIANDVAKYFAIIPAAFAATYPQLNALNIMCLHSPDSAILSAVIFNALIIVFLIPLALKGVSYKPLTASAMLRRNLWIYGLGGLLVPFIGIKVIDLLLTVCGLV
chain 4: MSGLRPALSTFIFLLLITGGVYPLLTTVLGQWWFPWQANGSLIREGDTVRGSALIGQNFTGNGYFHGRPSATAEMPYNPQASGGSNLAVSNPELDKLIAARVAALRAANPDASASVPVELVTASASGLDNNITPQAAAWQIPRVAKARNLSVEQLTQLIAKYSQQPLVKYIGQPVVNIVELNLALDKLDE
[3]
  stoichiometry N: 2

B3: KcsA T75C (natural protein)
chain: MPPMLSGLLARLVKLLLGRHGSALHWRAAGAATVLLVIVLLAGSYLAVLAERGAPGAQLITYPRALWWSVETATCVGYGDLYPVTLWGRLVAVVVMVAGITSFGLVTAALATWFVGREQERRGHFVRHSEKAAEEAYTRTTRALHERFDRLERMLDDNRR
[4]
  binding result: binds

B4: KcsA Thr75 to Ala (natural protein)
chain: B3 chain with C75A
[4]
  binding result: binds
